According to patent US20230357348A1 (AstraZeneca / MedImmune, published 2023):
Starred links: 1 amine or outer side, 2 acyl side, 3 side chain; linkers in the order of their positions; H or OH if unused. Non-standard residues stand in square brackets, D forms with d. Groups on a side chain read outwards from the residue. No end group written: not given here. *: point of attachment. β‑dimethylGln = β-dimethylglutamine, CC(C)(CC(N)=O)[C@H](N[*:1])C(=O)[*:2]; C20 diacid = O=C(O)CCCCCCCCCCCCCCCCCCC(=O)*; C18 diacid = O=C(O)CCCCCCCCCCCCCCCCC(=O)*; γGlu = O=C(O)[C@H](CCC(=O)[*:2])N[*:1]; αMeF = C[C@](N)(Cc1ccccc1)C(=O)O; NMeQ = CN[C@@H](CCC(N)=O)C(=O)O; AEEA = NCCOCCOCC(=O)O; Aib = CC(C)(N)C(=O)O

How the values were obtained:
human GLP-1 receptor = human GLP-1 receptor (human, UniProt P43220 24-463); assay: cell-based or functional assay
human glucagon receptor = human glucagon receptor (human, UniProt P47871 26-477); assay: cell-based or functional assay
Sequence of human glucagon receptor (P47871 26-477): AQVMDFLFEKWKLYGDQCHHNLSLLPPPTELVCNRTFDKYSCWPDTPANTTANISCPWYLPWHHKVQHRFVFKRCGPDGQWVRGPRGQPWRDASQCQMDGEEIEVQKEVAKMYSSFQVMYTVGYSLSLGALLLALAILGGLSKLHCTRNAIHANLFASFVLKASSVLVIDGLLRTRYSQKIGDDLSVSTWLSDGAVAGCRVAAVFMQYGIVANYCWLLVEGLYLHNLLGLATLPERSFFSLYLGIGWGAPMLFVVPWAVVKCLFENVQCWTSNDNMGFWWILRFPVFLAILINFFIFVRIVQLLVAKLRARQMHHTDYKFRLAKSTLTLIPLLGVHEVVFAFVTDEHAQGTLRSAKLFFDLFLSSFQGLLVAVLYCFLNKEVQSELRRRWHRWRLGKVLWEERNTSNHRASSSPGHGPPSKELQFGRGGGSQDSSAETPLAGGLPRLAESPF

B1: Peptide 340 (peptide)
peptide: H[Aib]QGTFTSDYSK[αMeF]LDSRRAK([γGlu-C18 diacid])DFVQWLL[Aib]E-OH
modifications: N-terminus assumed
SMILES: CC(C)C[C@H](NC(=O)[C@H](Cc1c[nH]c2ccccc12)NC(=O)[C@H](CCC(N)=O)NC(=O)[C@@H](NC(=O)[C@H](Cc1ccccc1)NC(=O)[C@H](CC(=O)O)NC(=O)[C@H](CCCCNC(=O)CC[C@H](NC(=O)CCCCCCCCCCCCCCCCC(=O)O)C(=O)O)NC(=O)[C@H](C)NC(=O)[C@H](CCCNC(=N)N)NC(=O)[C@H](CCCNC(=N)N)NC(=O)[C@H](CO)NC(=O)[C@H](CC(=O)O)NC(=O)[C@H](CC(C)C)NC(=O)[C@](C)(Cc1ccccc1)NC(=O)[C@H](CCCCN)NC(=O)[C@H](CO)NC(=O)[C@H](Cc1ccc(O)cc1)NC(=O)[C@H](CC(=O)O)NC(=O)[C@H](CO)NC(=O)[C@@H](NC(=O)[C@H](Cc1ccccc1)NC(=O)[C@@H](NC(=O)CNC(=O)[C@H](CCC(N)=O)NC(=O)C(C)(C)NC(=O)[C@@H](N)Cc1c[nH]cn1)[C@@H](C)O)[C@@H](C)O)C(C)C)C(=O)N[C@@H](CC(C)C)C(=O)NC(C)(C)C(=O)N[C@@H](CCC(=O)O)C(=O)O
- hGLP-1R EC50 (pM), cAMP (human GLP-1 receptor): 312 pM
- hGluc-R EC50 (pM), cAMP (human glucagon receptor): 94.7 pM

B2: Peptide 325 (peptide)
peptide: HS[NMeQ]GS[αMeF]TSDVSK[αMeF]LDSRAAK([AEEA-AEEA-γGlu-C18 diacid])D[αMeF]VQ[Aib]IANT-NH2
modifications: N-terminus assumed
SMILES: CC[C@H](C)[C@H](NC(=O)C(C)(C)NC(=O)[C@H](CCC(N)=O)NC(=O)[C@@H](NC(=O)[C@](C)(Cc1ccccc1)NC(=O)[C@H](CC(=O)O)NC(=O)[C@H](CCCCNC(=O)COCCOCCNC(=O)COCCOCCNC(=O)CC[C@H](NC(=O)CCCCCCCCCCCCCCCCC(=O)O)C(=O)O)NC(=O)[C@H](C)NC(=O)[C@H](C)NC(=O)[C@H](CCCNC(=N)N)NC(=O)[C@H](CO)NC(=O)[C@H](CC(=O)O)NC(=O)[C@H](CC(C)C)NC(=O)[C@](C)(Cc1ccccc1)NC(=O)[C@H](CCCCN)NC(=O)[C@H](CO)NC(=O)[C@@H](NC(=O)[C@H](CC(=O)O)NC(=O)[C@H](CO)NC(=O)[C@@H](NC(=O)[C@](C)(Cc1ccccc1)NC(=O)[C@H](CO)NC(=O)CNC(=O)[C@H](CCC(N)=O)N(C)C(=O)[C@H](CO)NC(=O)[C@@H](N)Cc1c[nH]cn1)[C@@H](C)O)C(C)C)C(C)C)C(=O)N[C@@H](C)C(=O)N[C@@H](CC(N)=O)C(=O)N[C@H](C(N)=O)[C@@H](C)O
- hGLP-1R EC50 (pM), cAMP (human GLP-1 receptor): 929 pM
- hGluc-R EC50 (pM), cAMP (human glucagon receptor): > 25500 pM

B3: Peptide 522 (peptide)
peptide: H[Aib]QGTFTSDVSK[αMeF]LDSERAK([AEEA-AEEA-γGlu-C18 diacid])DFVAWLEAGG-OH
modifications: N-terminus assumed
SMILES: CC(C)C[C@H](NC(=O)[C@H](Cc1c[nH]c2ccccc12)NC(=O)[C@H](C)NC(=O)[C@@H](NC(=O)[C@H](Cc1ccccc1)NC(=O)[C@H](CC(=O)O)NC(=O)[C@H](CCCCNC(=O)COCCOCCNC(=O)COCCOCCNC(=O)CC[C@H](NC(=O)CCCCCCCCCCCCCCCCC(=O)O)C(=O)O)NC(=O)[C@H](C)NC(=O)[C@H](CCCNC(=N)N)NC(=O)[C@H](CCC(=O)O)NC(=O)[C@H](CO)NC(=O)[C@H](CC(=O)O)NC(=O)[C@H](CC(C)C)NC(=O)[C@](C)(Cc1ccccc1)NC(=O)[C@H](CCCCN)NC(=O)[C@H](CO)NC(=O)[C@@H](NC(=O)[C@H](CC(=O)O)NC(=O)[C@H](CO)NC(=O)[C@@H](NC(=O)[C@H](Cc1ccccc1)NC(=O)[C@@H](NC(=O)CNC(=O)[C@H](CCC(N)=O)NC(=O)C(C)(C)NC(=O)[C@@H](N)Cc1c[nH]cn1)[C@@H](C)O)[C@@H](C)O)C(C)C)C(C)C)C(=O)N[C@@H](CCC(=O)O)C(=O)N[C@@H](C)C(=O)NCC(=O)NCC(=O)O
- hGLP-1R EC50 (pM), cAMP (human GLP-1 receptor): 508 pM
- hGluc-R EC50 (pM), cAMP (human glucagon receptor): 6360 pM

B4: Peptide 343 (peptide)
peptide: H[Aib]QGTFTSDVSK[αMeF]LDSRAAKDFVQWIANT-NH2
modifications: not fully specified (residue 20)
- hGLP-1R EC50 (pM), cAMP (human GLP-1 receptor): 198 pM
- hGluc-R EC50 (pM), cAMP (human glucagon receptor): 19600 pM

B5: Peptide 525 (peptide)
peptide: H[Aib]QGTFTSDVSK[αMeF]LDSERAK([AEEA-AEEA-γGlu-C18 diacid])DFVQWLEA[Aib]G-OH
modifications: N-terminus assumed
SMILES: CC(C)C[C@H](NC(=O)[C@H](Cc1c[nH]c2ccccc12)NC(=O)[C@H](CCC(N)=O)NC(=O)[C@@H](NC(=O)[C@H](Cc1ccccc1)NC(=O)[C@H](CC(=O)O)NC(=O)[C@H](CCCCNC(=O)COCCOCCNC(=O)COCCOCCNC(=O)CC[C@H](NC(=O)CCCCCCCCCCCCCCCCC(=O)O)C(=O)O)NC(=O)[C@H](C)NC(=O)[C@H](CCCNC(=N)N)NC(=O)[C@H](CCC(=O)O)NC(=O)[C@H](CO)NC(=O)[C@H](CC(=O)O)NC(=O)[C@H](CC(C)C)NC(=O)[C@](C)(Cc1ccccc1)NC(=O)[C@H](CCCCN)NC(=O)[C@H](CO)NC(=O)[C@@H](NC(=O)[C@H](CC(=O)O)NC(=O)[C@H](CO)NC(=O)[C@@H](NC(=O)[C@H](Cc1ccccc1)NC(=O)[C@@H](NC(=O)CNC(=O)[C@H](CCC(N)=O)NC(=O)C(C)(C)NC(=O)[C@@H](N)Cc1c[nH]cn1)[C@@H](C)O)[C@@H](C)O)C(C)C)C(C)C)C(=O)N[C@@H](CCC(=O)O)C(=O)N[C@@H](C)C(=O)NC(C)(C)C(=O)NCC(=O)O
- hGLP-1R EC50 (pM), cAMP (human GLP-1 receptor): 177 pM
- hGluc-R EC50 (pM), cAMP (human glucagon receptor): 2450 pM

B6: Peptide 318 (peptide)
peptide: H[Aib]QGTFTSDVSK[αMeF]LDSRAAK([AEEA-AEEA-γGlu-C18 diacid])DFVQWIANT-NH2
modifications: not fully specified
- hGLP-1R EC50 (pM), cAMP (human GLP-1 receptor): 55.2 pM
- hGluc-R EC50 (pM), cAMP (human glucagon receptor): 12000 pM

B7: Peptide 324 (peptide)
peptide: HS[β‑dimethylGln]GS[αMeF]TSDVSK[αMeF]LDSRAAK([AEEA-AEEA-γGlu-C18 diacid])D[αMeF]VQ[Aib]IANT-NH2
modifications: N-terminus assumed
SMILES: CC[C@H](C)[C@H](NC(=O)C(C)(C)NC(=O)[C@H](CCC(N)=O)NC(=O)[C@@H](NC(=O)[C@](C)(Cc1ccccc1)NC(=O)[C@H](CC(=O)O)NC(=O)[C@H](CCCCNC(=O)COCCOCCNC(=O)COCCOCCNC(=O)CC[C@H](NC(=O)CCCCCCCCCCCCCCCCC(=O)O)C(=O)O)NC(=O)[C@H](C)NC(=O)[C@H](C)NC(=O)[C@H](CCCNC(=N)N)NC(=O)[C@H](CO)NC(=O)[C@H](CC(=O)O)NC(=O)[C@H](CC(C)C)NC(=O)[C@](C)(Cc1ccccc1)NC(=O)[C@H](CCCCN)NC(=O)[C@H](CO)NC(=O)[C@@H](NC(=O)[C@H](CC(=O)O)NC(=O)[C@H](CO)NC(=O)[C@@H](NC(=O)[C@](C)(Cc1ccccc1)NC(=O)[C@H](CO)NC(=O)CNC(=O)[C@@H](NC(=O)[C@H](CO)NC(=O)[C@@H](N)Cc1c[nH]cn1)C(C)(C)CC(N)=O)[C@@H](C)O)C(C)C)C(C)C)C(=O)N[C@@H](C)C(=O)N[C@@H](CC(N)=O)C(=O)N[C@H](C(N)=O)[C@@H](C)O
- hGLP-1R EC50 (pM), cAMP (human GLP-1 receptor): 1330 pM
- hGluc-R EC50 (pM), cAMP (human glucagon receptor): 1930 pM

B8: Peptide 524 (peptide)
peptide: H[Aib]QGTFTSDVSE[αMeF]LDSERAK([AEEA-AEEA-γGlu-C18 diacid])DFVRWLEAGG-OH
modifications: not fully specified
- hGLP-1R EC50 (pM), cAMP (human GLP-1 receptor): 366 pM
- hGluc-R EC50 (pM), cAMP (human glucagon receptor): > 24400 pM

B9: Peptide 302 (peptide)
peptide: H[Aib]HGS[αMeF]TSDVSK[αMeF]LDSRAAK([AEEA-AEEA-γGlu-γGlu-C20 diacid])D[αMeF]IA[Aib]IAET-NH2
- hGLP-1R EC50 (pM), cAMP (human GLP-1 receptor): 151 pM
- hGluc-R EC50 (pM), cAMP (human glucagon receptor): 271 pM

B10: Peptide 322 (peptide)
peptide: H[Aib]QGS[αMeF]TSDVSK[αMeF]LDSRAAK([AEEA-AEEA-γGlu-γGlu-C20 diacid])D[αMeF]VQ[Aib]IANT-NH2
- hGLP-1R EC50 (pM), cAMP (human GLP-1 receptor): 68.3 pM
- hGluc-R EC50 (pM), cAMP (human glucagon receptor): > 24700 pM

B11: Peptide 305 (peptide)
peptide: H[Aib]HGS[αMeF]TSDVSK[αMeF]LDSRAAK([AEEA-AEEA-γGlu-γGlu-C20 diacid])D[αMeF]VQ[Aib]IANT-NH2
modifications: not fully specified
- hGLP-1R EC50 (pM), cAMP (human GLP-1 receptor): 211 pM
- hGluc-R EC50 (pM), cAMP (human glucagon receptor): 155 pM

B12: Peptide 523 (peptide)
peptide: H[Aib]QGTFTSDVSK[αMeF]LDSERAK([AEEA-AEEA-γGlu-C20 diacid])DFVAWLEAGG-OH
modifications: N-terminus assumed
SMILES: CC(C)C[C@H](NC(=O)[C@H](Cc1c[nH]c2ccccc12)NC(=O)[C@H](C)NC(=O)[C@@H](NC(=O)[C@H](Cc1ccccc1)NC(=O)[C@H](CC(=O)O)NC(=O)[C@H](CCCCNC(=O)COCCOCCNC(=O)COCCOCCNC(=O)CC[C@H](NC(=O)CCCCCCCCCCCCCCCCCCC(=O)O)C(=O)O)NC(=O)[C@H](C)NC(=O)[C@H](CCCNC(=N)N)NC(=O)[C@H](CCC(=O)O)NC(=O)[C@H](CO)NC(=O)[C@H](CC(=O)O)NC(=O)[C@H](CC(C)C)NC(=O)[C@](C)(Cc1ccccc1)NC(=O)[C@H](CCCCN)NC(=O)[C@H](CO)NC(=O)[C@@H](NC(=O)[C@H](CC(=O)O)NC(=O)[C@H](CO)NC(=O)[C@@H](NC(=O)[C@H](Cc1ccccc1)NC(=O)[C@@H](NC(=O)CNC(=O)[C@H](CCC(N)=O)NC(=O)C(C)(C)NC(=O)[C@@H](N)Cc1c[nH]cn1)[C@@H](C)O)[C@@H](C)O)C(C)C)C(C)C)C(=O)N[C@@H](CCC(=O)O)C(=O)N[C@@H](C)C(=O)NCC(=O)NCC(=O)O
- hGLP-1R EC50 (pM), cAMP (human GLP-1 receptor): 615 pM
- hGluc-R EC50 (pM), cAMP (human glucagon receptor): > 24700 pM

B13: Peptide 315 (peptide)
peptide: H[Aib]QGTFTSDVSK[αMeF]LDSRAAK([AEEA-AEEA-γGlu-C18 diacid])DFVQ[Aib]LVAT-NH2
modifications: not fully specified
- hGLP-1R EC50 (pM), cAMP (human GLP-1 receptor): 18.1 pM
- hGluc-R EC50 (pM), cAMP (human glucagon receptor): 5850 pM

B14: Peptide 304 (peptide)
peptide: H[Aib]HGS[αMeF]TSDVSK[αMeF]LDSRAAK([AEEA-AEEA-γGlu-γGlu-C20 diacid])D[αMeF]VQ[Aib]IANT-OH
- hGLP-1R EC50 (pM), cAMP (human GLP-1 receptor): 239 pM
- hGluc-R EC50 (pM), cAMP (human glucagon receptor): 687 pM
